Results taken from publication PMC9980132 (bioRxiv, 2023).
One block for each molecule: values may come before it.

Experiments:
[1] = target: H2AK119Ub nucleosome (non-hydrolyzable, 187 bp Widom 601 DNA) (Xenopus | not stated) (UniProt P0CG48)
[2] = target: T1, BAP1 (full-length human BAP1, residues 1-729) (human, UniProt Q92560 1-729); assay: cryo-EM structure
T1 sequence: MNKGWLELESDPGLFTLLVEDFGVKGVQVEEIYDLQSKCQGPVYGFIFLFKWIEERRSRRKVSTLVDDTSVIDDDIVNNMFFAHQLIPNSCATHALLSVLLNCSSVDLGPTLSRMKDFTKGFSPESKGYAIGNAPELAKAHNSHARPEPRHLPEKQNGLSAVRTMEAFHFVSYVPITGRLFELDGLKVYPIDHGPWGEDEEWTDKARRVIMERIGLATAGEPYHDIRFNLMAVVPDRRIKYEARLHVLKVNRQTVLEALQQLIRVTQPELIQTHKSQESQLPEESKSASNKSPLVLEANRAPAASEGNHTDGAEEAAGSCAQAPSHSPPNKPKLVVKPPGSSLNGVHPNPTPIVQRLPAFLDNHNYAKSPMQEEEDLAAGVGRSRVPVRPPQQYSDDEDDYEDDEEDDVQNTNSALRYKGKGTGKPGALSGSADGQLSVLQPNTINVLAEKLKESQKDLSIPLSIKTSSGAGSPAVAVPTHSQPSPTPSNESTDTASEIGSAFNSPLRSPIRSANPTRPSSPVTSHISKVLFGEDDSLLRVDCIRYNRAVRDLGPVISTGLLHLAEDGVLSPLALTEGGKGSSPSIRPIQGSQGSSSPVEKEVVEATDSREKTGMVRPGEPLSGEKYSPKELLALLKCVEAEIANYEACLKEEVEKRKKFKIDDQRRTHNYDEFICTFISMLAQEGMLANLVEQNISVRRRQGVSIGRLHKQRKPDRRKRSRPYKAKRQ

Sequence of H2AK119Ub nucleosome (non-hydrolyzable, 187 bp Widom 601 DNA) (Xenopus | not stated) (P0CG48 whole entry, looked up, the tested form may be a part): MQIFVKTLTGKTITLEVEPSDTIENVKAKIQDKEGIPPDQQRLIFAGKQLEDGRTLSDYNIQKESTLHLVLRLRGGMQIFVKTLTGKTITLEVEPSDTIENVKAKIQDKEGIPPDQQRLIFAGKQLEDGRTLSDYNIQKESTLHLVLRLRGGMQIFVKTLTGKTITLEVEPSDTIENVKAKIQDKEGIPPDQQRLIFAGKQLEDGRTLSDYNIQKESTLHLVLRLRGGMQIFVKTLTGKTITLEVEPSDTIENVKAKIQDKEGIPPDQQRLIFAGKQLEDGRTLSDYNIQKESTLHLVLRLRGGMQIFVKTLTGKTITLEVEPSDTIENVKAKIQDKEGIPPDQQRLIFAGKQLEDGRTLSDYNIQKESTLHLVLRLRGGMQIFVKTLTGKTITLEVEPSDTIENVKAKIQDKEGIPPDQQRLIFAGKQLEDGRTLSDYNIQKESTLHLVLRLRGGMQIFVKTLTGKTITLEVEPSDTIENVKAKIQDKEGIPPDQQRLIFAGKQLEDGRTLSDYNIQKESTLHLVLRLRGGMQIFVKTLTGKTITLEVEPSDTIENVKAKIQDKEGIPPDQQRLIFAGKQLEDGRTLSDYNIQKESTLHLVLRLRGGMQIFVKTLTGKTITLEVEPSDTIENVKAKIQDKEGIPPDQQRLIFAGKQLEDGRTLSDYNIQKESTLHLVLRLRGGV

kcat (turnover number) of deubiquitination of the H2AK119ub1 designer nucleosome [1]: 0.015 s⁻¹
Molecule: BAP1 R56A/R57A/R59A/R60A in complex with wild-type ASXL1 DEUBAD (from UniProt Q92560;Q8IXJ9)

binding result [2]: binds
B1: ASXL1 DEUBAD domain (residues 237-390) (domain or fragment)
chain: PATGQMKRNRGEEIDFETPGSILVNTNLRALINSRTFHALPSHFQQQLLFLLPEVDRQVGTDGLLRLSSSALNNEFFTHAAQSWRERLADGEFTHEMQVRIRQEMEKEKKVEQWKEKFFEDYYGQKLGLTKEESLQQNVGQEEAEIKSGLCVPG
